Source: patent US20230365662A1
Values joined by “and” are separate entries in the source; they are usually repeats but may differ in a detail not shown here. Equal entries are not always repeated.

B1: parental mouse (KB001) Fab FASEBA, VL variant L55R/S51G (Fab, V domains shown)
VH: EVQLKQSGPGLVAPSQSLSITCTVSGFSLSIYSVHWVRQPPGKGLEWLGMIWGGGSSDYNSALKSRLSISKDNSKSQVFLKMNSLQTDDTAMYYCARNGNFYAMDYWGQGTSVTVSS
VL: QIVLTQSPAIMSASLGERVTMTCTASSSVSSSFLHWYQQKPGSSPQLWIYGTSNRASGVPARFSGSGSGTSYSLTISSMEAEDAATYYCHQYHHSPYIYTFGGGTKLEIK
B2: parental mouse (KB001) Fab FASEBA, VL variant A56T (Fab, V domains shown)
VH: EVQLKQSGPGLVAPSQSLSITCTVSGFSLSIYSVHWVRQPPGKGLEWLGMIWGGGSSDYNSALKSRLSISKDNSKSQVFLKMNSLQTDDTAMYYCARNGNFYAMDYWGQGTSVTVSS
VL: QIVLTQSPAIMSASLGERVTMTCTASSSVSSSFLHWYQQKPGSSPQLWIYSTSNLTSGVPARFSGSGSGTSYSLTISSMEAEDAATYYCHQYHHSPYIYTFGGGTKLEIK
B3: parental mouse (KB001) Fab FASEBA, VL variant S57A (Fab, V domains shown)
VH: EVQLKQSGPGLVAPSQSLSITCTVSGFSLSIYSVHWVRQPPGKGLEWLGMIWGGGSSDYNSALKSRLSISKDNSKSQVFLKMNSLQTDDTAMYYCARNGNFYAMDYWGQGTSVTVSS
VL: QIVLTQSPAIMSASLGERVTMTCTASSSVSSSFLHWYQQKPGSSPQLWIYSTSNLAAGVPARFSGSGSGTSYSLTISSMEAEDAATYYCHQYHHSPYIYTFGGGTKLEIK
B4: parental mouse (KB001) Fab FASEBA, VL variant L55S (Fab, V domains shown)
VH: EVQLKQSGPGLVAPSQSLSITCTVSGFSLSIYSVHWVRQPPGKGLEWLGMIWGGGSSDYNSALKSRLSISKDNSKSQVFLKMNSLQTDDTAMYYCARNGNFYAMDYWGQGTSVTVSS
VL: QIVLTQSPAIMSASLGERVTMTCTASSSVSSSFLHWYQQKPGSSPQLWIYSTSNSASGVPARFSGSGSGTSYSLTISSMEAEDAATYYCHQYHHSPYIYTFGGGTKLEIK
B5: parental mouse (KB001) Fab FASEBA, VL variant A56R (Fab, V domains shown)
VH: EVQLKQSGPGLVAPSQSLSITCTVSGFSLSIYSVHWVRQPPGKGLEWLGMIWGGGSSDYNSALKSRLSISKDNSKSQVFLKMNSLQTDDTAMYYCARNGNFYAMDYWGQGTSVTVSS
VL: QIVLTQSPAIMSASLGERVTMTCTASSSVSSSFLHWYQQKPGSSPQLWIYSTSNLRSGVPARFSGSGSGTSYSLTISSMEAEDAATYYCHQYHHSPYIYTFGGGTKLEIK
B6: parental mouse (KB001) Fab FASEBA, VL variant L55Q (Fab, V domains shown)
VH: EVQLKQSGPGLVAPSQSLSITCTVSGFSLSIYSVHWVRQPPGKGLEWLGMIWGGGSSDYNSALKSRLSISKDNSKSQVFLKMNSLQTDDTAMYYCARNGNFYAMDYWGQGTSVTVSS
VL: QIVLTQSPAIMSASLGERVTMTCTASSSVSSSFLHWYQQKPGSSPQLWIYSTSNQASGVPARFSGSGSGTSYSLTISSMEAEDAATYYCHQYHHSPYIYTFGGGTKLEIK
B7: parental mouse (KB001) Fab FASEBA, VL variant L55H (Fab, V domains shown)
VH: EVQLKQSGPGLVAPSQSLSITCTVSGFSLSIYSVHWVRQPPGKGLEWLGMIWGGGSSDYNSALKSRLSISKDNSKSQVFLKMNSLQTDDTAMYYCARNGNFYAMDYWGQGTSVTVSS
VL: QIVLTQSPAIMSASLGERVTMTCTASSSVSSSFLHWYQQKPGSSPQLWIYSTSNHASGVPARFSGSGSGTSYSLTISSMEAEDAATYYCHQYHHSPYIYTFGGGTKLEIK
B8: parental mouse (KB001) Fab FASEBA, VL variant S57E (Fab, V domains shown)
VH: EVQLKQSGPGLVAPSQSLSITCTVSGFSLSIYSVHWVRQPPGKGLEWLGMIWGGGSSDYNSALKSRLSISKDNSKSQVFLKMNSLQTDDTAMYYCARNGNFYAMDYWGQGTSVTVSS
VL: QIVLTQSPAIMSASLGERVTMTCTASSSVSSSFLHWYQQKPGSSPQLWIYSTSNLAEGVPARFSGSGSGTSYSLTISSMEAEDAATYYCHQYHHSPYIYTFGGGTKLEIK
B9: parental mouse (KB001) Fab FASEBA, VL variant S57L (Fab, V domains shown)
VH: EVQLKQSGPGLVAPSQSLSITCTVSGFSLSIYSVHWVRQPPGKGLEWLGMIWGGGSSDYNSALKSRLSISKDNSKSQVFLKMNSLQTDDTAMYYCARNGNFYAMDYWGQGTSVTVSS
VL: QIVLTQSPAIMSASLGERVTMTCTASSSVSSSFLHWYQQKPGSSPQLWIYSTSNLALGVPARFSGSGSGTSYSLTISSMEAEDAATYYCHQYHHSPYIYTFGGGTKLEIK
B10: parental mouse (KB001) Fab FASEBA, VL variant S57K (Fab, V domains shown)
VH: EVQLKQSGPGLVAPSQSLSITCTVSGFSLSIYSVHWVRQPPGKGLEWLGMIWGGGSSDYNSALKSRLSISKDNSKSQVFLKMNSLQTDDTAMYYCARNGNFYAMDYWGQGTSVTVSS
VL: QIVLTQSPAIMSASLGERVTMTCTASSSVSSSFLHWYQQKPGSSPQLWIYSTSNLAKGVPARFSGSGSGTSYSLTISSMEAEDAATYYCHQYHHSPYIYTFGGGTKLEIK
B11: parental mouse (KB001) Fab FASEBA, VL variant S57I (Fab, V domains shown)
VH: EVQLKQSGPGLVAPSQSLSITCTVSGFSLSIYSVHWVRQPPGKGLEWLGMIWGGGSSDYNSALKSRLSISKDNSKSQVFLKMNSLQTDDTAMYYCARNGNFYAMDYWGQGTSVTVSS
VL: QIVLTQSPAIMSASLGERVTMTCTASSSVSSSFLHWYQQKPGSSPQLWIYSTSNLAIGVPARFSGSGSGTSYSLTISSMEAEDAATYYCHQYHHSPYIYTFGGGTKLEIK
B12: parental mouse (KB001) Fab FASEBA, VL variant A56N (Fab, V domains shown)
VH: EVQLKQSGPGLVAPSQSLSITCTVSGFSLSIYSVHWVRQPPGKGLEWLGMIWGGGSSDYNSALKSRLSISKDNSKSQVFLKMNSLQTDDTAMYYCARNGNFYAMDYWGQGTSVTVSS
VL: QIVLTQSPAIMSASLGERVTMTCTASSSVSSSFLHWYQQKPGSSPQLWIYSTSNLNSGVPARFSGSGSGTSYSLTISSMEAEDAATYYCHQYHHSPYIYTFGGGTKLEIK
B13: parental mouse (KB001) Fab FASEBA, VL variant S57Q (Fab, V domains shown)
VH: EVQLKQSGPGLVAPSQSLSITCTVSGFSLSIYSVHWVRQPPGKGLEWLGMIWGGGSSDYNSALKSRLSISKDNSKSQVFLKMNSLQTDDTAMYYCARNGNFYAMDYWGQGTSVTVSS
VL: QIVLTQSPAIMSASLGERVTMTCTASSSVSSSFLHWYQQKPGSSPQLWIYSTSNLAQGVPARFSGSGSGTSYSLTISSMEAEDAATYYCHQYHHSPYIYTFGGGTKLEIK
B14: parental mouse (KB001) Fab FASEBA, VL variant A56M (Fab, V domains shown)
VH: EVQLKQSGPGLVAPSQSLSITCTVSGFSLSIYSVHWVRQPPGKGLEWLGMIWGGGSSDYNSALKSRLSISKDNSKSQVFLKMNSLQTDDTAMYYCARNGNFYAMDYWGQGTSVTVSS
VL: QIVLTQSPAIMSASLGERVTMTCTASSSVSSSFLHWYQQKPGSSPQLWIYSTSNLMSGVPARFSGSGSGTSYSLTISSMEAEDAATYYCHQYHHSPYIYTFGGGTKLEIK
B15: parental mouse (KB001) Fab FASEBA, VL variant A56S (Fab, V domains shown)
VH: EVQLKQSGPGLVAPSQSLSITCTVSGFSLSIYSVHWVRQPPGKGLEWLGMIWGGGSSDYNSALKSRLSISKDNSKSQVFLKMNSLQTDDTAMYYCARNGNFYAMDYWGQGTSVTVSS
VL: QIVLTQSPAIMSASLGERVTMTCTASSSVSSSFLHWYQQKPGSSPQLWIYSTSNLSSGVPARFSGSGSGTSYSLTISSMEAEDAATYYCHQYHHSPYIYTFGGGTKLEIK
B16: parental mouse (KB001) Fab FASEBA, VL variant S57N (Fab, V domains shown)
VH: EVQLKQSGPGLVAPSQSLSITCTVSGFSLSIYSVHWVRQPPGKGLEWLGMIWGGGSSDYNSALKSRLSISKDNSKSQVFLKMNSLQTDDTAMYYCARNGNFYAMDYWGQGTSVTVSS
VL: QIVLTQSPAIMSASLGERVTMTCTASSSVSSSFLHWYQQKPGSSPQLWIYSTSNLANGVPARFSGSGSGTSYSLTISSMEAEDAATYYCHQYHHSPYIYTFGGGTKLEIK
B17: parental mouse (KB001) Fab FASEBA, VL variant A56P (Fab, V domains shown)
VH: EVQLKQSGPGLVAPSQSLSITCTVSGFSLSIYSVHWVRQPPGKGLEWLGMIWGGGSSDYNSALKSRLSISKDNSKSQVFLKMNSLQTDDTAMYYCARNGNFYAMDYWGQGTSVTVSS
VL: QIVLTQSPAIMSASLGERVTMTCTASSSVSSSFLHWYQQKPGSSPQLWIYSTSNLPSGVPARFSGSGSGTSYSLTISSMEAEDAATYYCHQYHHSPYIYTFGGGTKLEIK
B18: parental mouse (KB001) Fab FASEBA, VL variant A56V (Fab, V domains shown)
VH: EVQLKQSGPGLVAPSQSLSITCTVSGFSLSIYSVHWVRQPPGKGLEWLGMIWGGGSSDYNSALKSRLSISKDNSKSQVFLKMNSLQTDDTAMYYCARNGNFYAMDYWGQGTSVTVSS
VL: QIVLTQSPAIMSASLGERVTMTCTASSSVSSSFLHWYQQKPGSSPQLWIYSTSNLVSGVPARFSGSGSGTSYSLTISSMEAEDAATYYCHQYHHSPYIYTFGGGTKLEIK
B19: parental mouse (KB001) Fab FASEBA, VL variant S57W (Fab, V domains shown)
VH: EVQLKQSGPGLVAPSQSLSITCTVSGFSLSIYSVHWVRQPPGKGLEWLGMIWGGGSSDYNSALKSRLSISKDNSKSQVFLKMNSLQTDDTAMYYCARNGNFYAMDYWGQGTSVTVSS
VL: QIVLTQSPAIMSASLGERVTMTCTASSSVSSSFLHWYQQKPGSSPQLWIYSTSNLAWGVPARFSGSGSGTSYSLTISSMEAEDAATYYCHQYHHSPYIYTFGGGTKLEIK
B20: parental mouse (KB001) Fab FASEBA, VL variant A56Q (Fab, V domains shown)
VH: EVQLKQSGPGLVAPSQSLSITCTVSGFSLSIYSVHWVRQPPGKGLEWLGMIWGGGSSDYNSALKSRLSISKDNSKSQVFLKMNSLQTDDTAMYYCARNGNFYAMDYWGQGTSVTVSS
VL: QIVLTQSPAIMSASLGERVTMTCTASSSVSSSFLHWYQQKPGSSPQLWIYSTSNLQSGVPARFSGSGSGTSYSLTISSMEAEDAATYYCHQYHHSPYIYTFGGGTKLEIK
B21: parental mouse (KB001) Fab FASEBA, VL variant S57F (Fab, V domains shown)
VH: EVQLKQSGPGLVAPSQSLSITCTVSGFSLSIYSVHWVRQPPGKGLEWLGMIWGGGSSDYNSALKSRLSISKDNSKSQVFLKMNSLQTDDTAMYYCARNGNFYAMDYWGQGTSVTVSS
VL: QIVLTQSPAIMSASLGERVTMTCTASSSVSSSFLHWYQQKPGSSPQLWIYSTSNLAFGVPARFSGSGSGTSYSLTISSMEAEDAATYYCHQYHHSPYIYTFGGGTKLEIK

Each binder was assayed against HRgpA-6H (Porphyromonas gingivalis) (UniProt P28784) (assay: ELISA, Fab FASEBA supernatant on coated HRgpA-6H).
Sequence of UniProt P28784 (P28784 228-991 limits assumed): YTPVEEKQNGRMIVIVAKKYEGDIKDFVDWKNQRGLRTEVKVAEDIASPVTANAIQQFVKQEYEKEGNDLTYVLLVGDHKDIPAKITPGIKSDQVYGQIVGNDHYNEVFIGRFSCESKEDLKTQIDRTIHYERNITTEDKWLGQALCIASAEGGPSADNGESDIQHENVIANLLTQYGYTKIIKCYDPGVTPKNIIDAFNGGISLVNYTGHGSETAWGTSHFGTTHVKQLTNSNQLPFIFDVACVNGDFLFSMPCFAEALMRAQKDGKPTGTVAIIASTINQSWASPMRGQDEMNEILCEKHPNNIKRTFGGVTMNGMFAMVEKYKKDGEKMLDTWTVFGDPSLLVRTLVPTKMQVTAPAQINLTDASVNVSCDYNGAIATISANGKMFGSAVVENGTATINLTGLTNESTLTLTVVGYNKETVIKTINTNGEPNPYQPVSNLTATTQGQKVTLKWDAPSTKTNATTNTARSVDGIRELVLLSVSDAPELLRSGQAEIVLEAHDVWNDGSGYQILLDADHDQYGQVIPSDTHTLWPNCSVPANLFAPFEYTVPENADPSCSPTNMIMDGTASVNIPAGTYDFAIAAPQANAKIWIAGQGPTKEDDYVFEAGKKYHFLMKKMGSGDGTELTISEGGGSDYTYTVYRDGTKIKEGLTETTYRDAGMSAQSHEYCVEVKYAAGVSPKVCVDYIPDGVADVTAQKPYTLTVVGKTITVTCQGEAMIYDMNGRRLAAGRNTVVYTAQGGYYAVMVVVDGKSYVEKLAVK

| Binder | OD450nm | Ratio OD(Variant)/OD(WT) |
| --- | --- | --- |
| B1 | 0.748 OD450nm | 0.955 ratio to WT |
| B2 | 0.731 OD450nm | 0.896 ratio to WT |
| B3 | 0.806 OD450nm | 0.988 ratio to WT |
| B4 | 0.655 OD450nm | 0.836 ratio to WT |
| B5 | 0.728 OD450nm and 0.734 OD450nm and 0.751 OD450nm | 0.893 ratio to WT and 0.9 ratio to WT and 0.921 ratio to WT |
| B6 | 0.662 OD450nm | 0.845 ratio to WT |
| B7 | 0.64 OD450nm | 0.817 ratio to WT |
| B8 | 0.751 OD450nm | 0.921 ratio to WT |
| B9 | 0.781 OD450nm | 0.958 ratio to WT |
| B10 | 0.712 OD450nm | 0.873 ratio to WT |
| B11 | 0.791 OD450nm | 0.97 ratio to WT |
| B12 | 0.712 OD450nm and 0.775 OD450nm | 0.873 ratio to WT and 0.95 ratio to WT |
| B13 | 0.658 OD450nm | 0.807 ratio to WT |
| B14 | 0.802 OD450nm and 0.701 OD450nm | 0.983 ratio to WT and 0.86 ratio to WT |
| B15 | 0.772 OD450nm and 0.751 OD450nm and 0.774 OD450nm | 0.947 ratio to WT and 0.921 ratio to WT and 0.949 ratio to WT |
| B16 | 0.813 OD450nm | 0.997 ratio to WT |
| B17 | 0.748 OD450nm | 0.917 ratio to WT |
| B18 | 0.794 OD450nm and 0.795 OD450nm | 0.974 ratio to WT and 0.975 ratio to WT |
| B19 | 0.784 OD450nm | 0.961 ratio to WT |
| B20 | 0.705 OD450nm | 0.865 ratio to WT |
| B21 | 0.785 OD450nm and 0.787 OD450nm and 0.797 OD450nm | 0.963 ratio to WT and 0.965 ratio to WT and 0.977 ratio to WT |
